# Data from publication PMC11662938, “Single-molecule visualization of sequence-specific RNA binding by a designer PPR protein”.
# T1: dPPR10 (synthetic construct (designed consensus …))
# T1 chain: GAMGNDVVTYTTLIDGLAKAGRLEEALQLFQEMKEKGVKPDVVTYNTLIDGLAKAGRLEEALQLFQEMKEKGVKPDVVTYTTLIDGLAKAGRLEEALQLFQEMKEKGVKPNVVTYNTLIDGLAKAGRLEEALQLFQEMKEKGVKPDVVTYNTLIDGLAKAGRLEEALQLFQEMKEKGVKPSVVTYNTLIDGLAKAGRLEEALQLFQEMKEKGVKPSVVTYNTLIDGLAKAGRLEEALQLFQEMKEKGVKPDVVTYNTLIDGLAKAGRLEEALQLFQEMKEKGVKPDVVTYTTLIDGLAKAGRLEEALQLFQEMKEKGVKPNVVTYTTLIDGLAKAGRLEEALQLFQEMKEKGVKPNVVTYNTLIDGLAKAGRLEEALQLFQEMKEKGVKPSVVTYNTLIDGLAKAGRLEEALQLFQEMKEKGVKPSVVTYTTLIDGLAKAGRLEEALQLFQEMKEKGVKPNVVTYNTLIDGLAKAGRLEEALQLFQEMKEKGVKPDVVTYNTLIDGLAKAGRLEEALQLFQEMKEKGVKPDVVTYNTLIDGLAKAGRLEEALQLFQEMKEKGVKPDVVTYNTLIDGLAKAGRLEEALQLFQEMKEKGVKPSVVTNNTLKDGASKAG
# T2: dPPR10-C2 (synthetic construct (designed consensus …, Q96C;Q376C))
# T2 chain: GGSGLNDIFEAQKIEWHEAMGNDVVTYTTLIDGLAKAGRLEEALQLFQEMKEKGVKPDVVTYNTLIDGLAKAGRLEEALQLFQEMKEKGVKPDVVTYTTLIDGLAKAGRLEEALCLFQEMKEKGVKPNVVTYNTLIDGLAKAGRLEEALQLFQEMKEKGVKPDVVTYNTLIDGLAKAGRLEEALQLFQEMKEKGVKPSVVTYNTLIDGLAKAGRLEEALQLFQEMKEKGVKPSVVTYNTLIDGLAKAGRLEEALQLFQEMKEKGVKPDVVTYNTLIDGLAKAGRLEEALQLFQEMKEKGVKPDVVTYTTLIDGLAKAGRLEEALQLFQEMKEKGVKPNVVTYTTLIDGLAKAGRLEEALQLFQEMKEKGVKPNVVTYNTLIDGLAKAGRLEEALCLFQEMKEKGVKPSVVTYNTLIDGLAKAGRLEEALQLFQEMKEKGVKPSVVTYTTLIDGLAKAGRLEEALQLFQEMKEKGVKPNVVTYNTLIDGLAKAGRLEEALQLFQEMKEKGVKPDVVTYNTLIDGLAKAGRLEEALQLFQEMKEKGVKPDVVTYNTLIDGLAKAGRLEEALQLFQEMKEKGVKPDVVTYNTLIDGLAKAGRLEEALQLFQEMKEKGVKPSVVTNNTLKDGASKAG
# B1: RNAdual-OH (delta2) (ssRNA)
# RNA: CAUUCCAACCCCCAAAGUGUAUCCUUAACCAUUUCUCUCACCAACCCCCAAAG
# Tests used:
# dPPR10 [1] = molecular target: T1, dPPR10; test: MST; Fig S4D legend value, conflicts with 4 nM in text; legend says labelled dPPR10; SPR: 30 mM Tris pH 7.6, 40 mM KCl, 5 mM MgCl2, 0.5 mM DTT, 0.25 mM EDTA, 0.01% P20, 20 C; ensemble FRET and MST: 100 mM Tris-HCl pH 8.0, 100 mM KCl; smFRET buffer not in material; settings: protein: recombinant; tags: Trx-His6-TEV (pETM20) cleaved; GAM remnant; label: 5' 6-FAM (FITC in Results)
# dPPR10 [2] = molecular target: T1, dPPR10; test: MST; Results value; Fig S4D legend gives 9.7 nM; SPR: 30 mM Tris pH 7.6, 40 mM KCl, 5 mM MgCl2, 0.5 mM DTT, 0.25 mM EDTA, 0.01% P20, 20 C; ensemble FRET and MST: 100 mM Tris-HCl pH 8.0, 100 mM KCl; smFRET buffer not in material; settings: protein: recombinant; tags: Trx-His6-TEV (pETM20) cleaved; GAM remnant; label: 5' 6-FAM (FITC in Results)
# dPPR10-C2 [3] = molecular target: T2, dPPR10-C2; test: smFRET; 1 uM RNA; mean binding time 41.3 s vs 10.6 s cognate; SPR: 30 mM Tris pH 7.6, 40 mM KCl, 5 mM MgCl2, 0.5 mM DTT, 0.25 mM EDTA, 0.01% P20, 20 C; ensemble FRET and MST: 100 mM Tris-HCl pH 8.0, 100 mM KCl; smFRET buffer not in material; settings: protein: recombinant; tags: N-terminal Avi-tag, biotinylated; Cy3/AF647 maleimide on Cys for FRET; 5' extension, predicted secondary structure
# dPPR10-C2 [4] = molecular target: T2, dPPR10-C2; test: smFRET; 1 uM RNA; mean binding time 30.0 s; SPR: 30 mM Tris pH 7.6, 40 mM KCl, 5 mM MgCl2, 0.5 mM DTT, 0.25 mM EDTA, 0.01% P20, 20 C; ensemble FRET and MST: 100 mM Tris-HCl pH 8.0, 100 mM KCl; smFRET buffer not in material; settings: protein: recombinant; tags: N-terminal Avi-tag, biotinylated; Cy3/AF647 maleimide on Cys for FRET; no predicted secondary structure
# dPPR10-C2 [5] = molecular target: T2, dPPR10-C2; test: smFRET; 1 uM RNA; SPR: 30 mM Tris pH 7.6, 40 mM KCl, 5 mM MgCl2, 0.5 mM DTT, 0.25 mM EDTA, 0.01% P20, 20 C; ensemble FRET and MST: 100 mM Tris-HCl pH 8.0, 100 mM KCl; smFRET buffer not in material; settings: protein: recombinant; tags: N-terminal Avi-tag, biotinylated; Cy3/AF647 maleimide on Cys for FRET
# dPPR10-C2 [6] = molecular target: T2, dPPR10-C2; test: smFRET; 1 uM RNA; mean binding time 43.4 s; SPR: 30 mM Tris pH 7.6, 40 mM KCl, 5 mM MgCl2, 0.5 mM DTT, 0.25 mM EDTA, 0.01% P20, 20 C; ensemble FRET and MST: 100 mM Tris-HCl pH 8.0, 100 mM KCl; smFRET buffer not in material; settings: protein: recombinant; tags: N-terminal Avi-tag, biotinylated; Cy3/AF647 maleimide on Cys for FRET; 3' extension, predicted secondary structure
# dPPR10-C2 [7] = molecular target: T2, dPPR10-C2; test: competition; 100-fold excess over RNAcognate; smFRET; SPR: 30 mM Tris pH 7.6, 40 mM KCl, 5 mM MgCl2, 0.5 mM DTT, 0.25 mM EDTA, 0.01% P20, 20 C; ensemble FRET and MST: 100 mM Tris-HCl pH 8.0, 100 mM KCl; smFRET buffer not in material; settings: protein: recombinant; tags: N-terminal Avi-tag, biotinylated; Cy3/AF647 maleimide on Cys for FRET
# dPPR10-C2 [8] = molecular target: T2, dPPR10-C2; test: ensemble FRET; SPR: 30 mM Tris pH 7.6, 40 mM KCl, 5 mM MgCl2, 0.5 mM DTT, 0.25 mM EDTA, 0.01% P20, 20 C; ensemble FRET and MST: 100 mM Tris-HCl pH 8.0, 100 mM KCl; smFRET buffer not in material; settings: protein: recombinant; tags: N-terminal Avi-tag, biotinylated; Cy3/AF647 maleimide on Cys for FRET
# dPPR10-C2 [9] = molecular target: T2, dPPR10-C2; test: smFRET; 1 uM RNA; rare transitions; SPR: 30 mM Tris pH 7.6, 40 mM KCl, 5 mM MgCl2, 0.5 mM DTT, 0.25 mM EDTA, 0.01% P20, 20 C; ensemble FRET and MST: 100 mM Tris-HCl pH 8.0, 100 mM KCl; smFRET buffer not in material; settings: protein: recombinant; tags: N-terminal Avi-tag, biotinylated; Cy3/AF647 maleimide on Cys for FRET
# dPPR10 [10] = molecular target: T1, dPPR10; test: MST; SPR: 30 mM Tris pH 7.6, 40 mM KCl, 5 mM MgCl2, 0.5 mM DTT, 0.25 mM EDTA, 0.01% P20, 20 C; ensemble FRET and MST: 100 mM Tris-HCl pH 8.0, 100 mM KCl; smFRET buffer not in material; settings: protein: recombinant; tags: Trx-His6-TEV (pETM20) cleaved; GAM remnant; label: 5' 6-FAM
binder,measurement,setting,value
UGUAUCCUUAACCAUUUCU (ssRNA) [RNAcognate 5'-FAM],Kd,dPPR10 [1],9.7 ± 1.8 nM
same,Kd,dPPR10 [2],4 nM
CACAGGAACCGGCAAAGUGUAUCCUUAACCAUUUCU (ssRNA) [RNA5'-OH],binding result,dPPR10-C2 [3],binds
B1,binding result,dPPR10-C2 [4],binds
CCAUUUCU (ssRNA) [RNA12-19],binding result,dPPR10-C2 [5],no binding
UGUAUCCUUAACCAUUUCUCACAGGAACCGGCAAAG (ssRNA) [RNA3'-OH],binding result,dPPR10-C2 [6],binds
UCACAGGAACCGGCAAAGU (ssRNA) [RNAanti-cognate],binding result,dPPR10-C2 [7],no binding
UGUAUCCUUA (ssRNA) [RNA1-10],binding result,dPPR10-C2 [5],no binding
UGUAUCCUUAACCAUUUCU (ssRNA) [RNAcognate],Kd,dPPR10-C2 [8],1.2 ± 0.2 nM
UGUAUCCUUAAC (ssRNA) [RNA1-12],binding result,dPPR10-C2 [5],binds
"UGUAUCCUAUACCAUUUCU (ssRNA) [RNA U9A,A10U]",binding result,dPPR10-C2 [9],no binding
UCACAGGAACCGGCAAAGU (ssRNA) [RNAanti-cognate 5'-FAM],binding result,dPPR10 [10],no binding
